Measurements: US10501552B2, “Multivalent molecules comprising DR5-binding domains” (MacroGenics, Inc., priority 2015, dated 2019)

Key:
NCI-N87 = assay: MTS cell proliferation assay; assay type: cell-based; details: NCI-N87 (Stomach); 1 μg/ml, ±10 μg/ml αmFc; two days
Method: (§1) Cell lines obtained from ATCC were cultured under standard tissue culture conditions. Each cell line was plated at ˜2×10^4 cells/well (in 96-well plates), and incubated overnight in F12/DMEM media supplemented with 10% FBS. […] Cell viability was determined using Promega CellTiter 96® AQeous Non-Radioactive Cell Proliferation Assay (Cat # G5430) essentially as described in the manufacturer's instructions to assay the amount of soluble formazan produced by cellular reduction of the MTS, which is a measure of the number of viable cells in the culture. Briefly, MTS/PMS regent was added to the wells and the absorbance at 490 nm (referenced at […]) was read in a Molecular Devices ThermoMax microplate reader.
(§2) Similar studies were performed over a range of anti-DR5 mAb concentrations from ˜10^−3 nM to ˜10^2 nM. The data for COLO205 cells is provided in FIG. 13, and are representative of cell lines sensitive to the antibodies of the invention.
(§3) The cytotoxicity of tetravalent DR5-Binding Molecules of the present invention was investigated. […] His-tagged TRAIL (R&D systems) was used as a positive control.
(§4) Similar studies were performed over a range of anti-DR5 mAb concentrations from ˜10^−3 nM to ˜10^2 nM.

PC3 = assay: MTS cell proliferation assay; assay type: cell-based; details: PC3 (Prostate); 1 μg/ml, ±10 μg/ml αmFc; two days
Method: as §1, §2, §3, §4

MCF7 = assay: MTS cell proliferation assay; assay type: cell-based; details: MCF7 (Breast); 1 μg/ml, ±10 μg/ml αmFc; two days
Method: as §1, §2, §3, §4

Hs746T = assay: MTS cell proliferation assay; assay type: cell-based; details: Hs746T (Stomach); 1 μg/ml, ±10 μg/ml αmFc; two days
Method: as §1, §2, §3, §4

HPAFII = assay: MTS cell proliferation assay; assay type: cell-based; details: HPAFII (Pancreas); 1 μg/ml, ±10 μg/ml αmFc; two days
Method: as §1, §2, §3, §4

CaKi2 = assay: MTS cell proliferation assay; assay type: cell-based; details: CaKi2 (Kidney); 1 μg/ml, ±10 μg/ml αmFc; two days
Method: as §1, §2, §3, §4

SW948 = assay: MTS cell proliferation assay; assay type: cell-based; details: SW948 (Colon); 1 μg/ml, ±10 μg/ml αmFc; two days
Method: as §1, §2, §3, §4

HT29 = assay: MTS cell proliferation assay; assay type: cell-based; details: HT29 (Colon); 1 μg/ml, ±10 μg/ml αmFc; two days
Method: as §1, §2, §3, §4

MDA-MB-231 = assay: MTS cell proliferation assay; assay type: cell-based; details: MDA-MB-231 (Breast); 1 μg/ml, ±10 μg/ml αmFc; two days
Method: as §1, §2, §3, §4

BT474 = assay: MTS cell proliferation assay; assay type: cell-based; details: BT474 (Breast); 1 μg/ml, ±10 μg/ml αmFc; two days
Method: as §1, §2, §3, §4

ES2 [1] = assay: MTS cell proliferation assay; assay type: cell-based; details: ES2 (Ovary); 1 μg/ml, ±10 μg/ml αmFc; two days
Method: as §1, §2, §3, §4

Calu3 = assay: MTS cell proliferation assay; assay type: cell-based; details: Calu3 (Lung); 1 μg/ml, ±10 μg/ml αmFc; two days
Method: as §1, §2, §3, §4

22RV1 = assay: MTS cell proliferation assay; assay type: cell-based; details: 22RV1 (Prostate); 1 μg/ml, ±10 μg/ml αmFc; two days
Method: as §1, §2, §3, §4

SW48 = assay: MTS cell proliferation assay; assay type: cell-based; details: SW48 (Colon); 1 μg/ml, ±10 μg/ml αmFc; two days
Method: as §1, §2, §3, §4

786O = assay: MTS cell proliferation assay; assay type: cell-based; details: 786O (Kidney); 1 μg/ml, ±10 μg/ml αmFc; two days
Method: as §1, §2, §3, §4

MDA-MB-175VII = assay: MTS cell proliferation assay; assay type: cell-based; details: MDA-MB-175VII (Breast); 1 μg/ml, ±10 μg/ml αmFc; two days
Method: as §1, §2, §3, §4

Hs700T = assay: MTS cell proliferation assay; assay type: cell-based; details: Hs700T (Pancreas); 1 μg/ml, ±10 μg/ml αmFc; two days
Method: as §1, §2, §3, §4

AsPC1 [2] = assay: MTS cell proliferation assay; assay type: cell-based; details: AsPC1 (Pancreas); 1 μg/ml, ±10 μg/ml αmFc; two days
Method: as §1, §2, §3, §4

A498 = assay: MTS cell proliferation assay; assay type: cell-based; details: A498 (Kidney); 1 μg/ml, ±10 μg/ml αmFc; two days
Method: as §1, §2, §3, §4

SKOV3 = assay: MTS cell proliferation assay; assay type: cell-based; details: SKOV3 (Ovary); 1 μg/ml, ±10 μg/ml αmFc; two days
Method: as §1, §2, §3, §4

MDA-MB-361 = assay: MTS cell proliferation assay; assay type: cell-based; details: MDA-MB-361 (Breast); 1 μg/ml, ±10 μg/ml αmFc; two days
Method: as §1, §2, §3, §4

ES2 [3] = assay: […]-GLO cell viability assay with vorinostat; assay type: cell-based; details: ES2 (Ovary); 1 μg/ml + 10 μM Vorinostat
AsPC1 [4] = assay: […]-GLO cell viability assay with vorinostat; assay type: cell-based; details: AsPC1 (Pancreas); 1 μg/ml + 1 μM Vorinostat
A549 = assay: MTS cell proliferation assay; assay type: cell-based, human; details: A549 (Lung); 1 μg/ml, ±10 μg/ml αmFc; two days
Method: as §1, §2, §3, §4

DU145 = assay: MTS cell proliferation assay; assay type: cell-based, human; details: DU145 (Prostate); 1 μg/ml, ±10 μg/ml αmFc; two days
Method: as §1, §2, §3, §4

LNCap = assay: MTS cell proliferation assay; assay type: cell-based, human; details: LNCap (Prostate); 1 μg/ml, ±10 μg/ml αmFc; two days
Method: as §1, §2, §3, §4

SKMES = assay: MTS cell proliferation assay; assay type: cell-based, human; details: SKMES (Lung); 1 μg/ml, ±10 μg/ml αmFc; two days
Method: as §1, §2, §3, §4

SKBR3 = assay: MTS cell proliferation assay; assay type: cell-based, human; details: SKBR3 (Breast); 1 μg/ml, ±10 μg/ml αmFc; two days
Method: as §1, §2, §3, §4

Molecule	% Inhibition (Average) (NCI-N87) [%]	% Inhibition (Average) (PC3) [%]	% Inhibition (Average) (MCF7) [%]	% Inhibition (Average) (Hs746T) [%]	% Inhibition (Average) (HPAFII) [%]	% Inhibition (Average) (CaKi2) [%]	% Inhibition (Average) (SW948) [%]	% Inhibition (Average) (HT29) [%]	% Inhibition (Average) (MDA-MB-231) [%]	% Inhibition (Average) (BT474) [%]	% Inhibition (Average) (ES2 [1]) [%]	% Inhibition (Average) (Calu3) [%]	% Inhibition (Average) (22RV1) [%]	% Inhibition (Average) (SW48) [%]	% Inhibition (Average) (786O) [%]	% Inhibition (Average) (MDA-MB-175VII) [%]	% Inhibition (Average) (Hs700T) [%]	% Inhibition (Average) (AsPC1 [2]) [%]	% Inhibition (Average) (A498) [%]	% Inhibition (Average) (SKOV3) [%]	also measured
DR5 mAb 2: murine anti-human DR5 monoclonal antibody; VL SEQ ID NO:13, VH SEQ ID NO:18 (antibody, listed as Mus musculus, V domains shown, (1)..(119) Anti-DR5 Antibody mAb 2 Heavy Chain Variable Region; (1)..(107) Anti-DR5 Antibody mAb 2 Light Chain Variable Region) VH: KVQLQQSGAELVKPGASVKLSCKASGYTFTEYILHWVKQKSGQGLEWIGWFYPGNNNIKYNEKFKDKATLTADKSSSTVYMELSRLTSEDSAVYFCARHEQGPGYFDYWGQGTTLTVSS VL: DIVMTQSHKFMSTSVGDRVSITCKASQDVNTAVAWYQQKPGQSPKLLIYWASTRHTGVPDRFTGSGSGTDYTLTIKSVQAEDLTLYYCQQHYITPWTFGGGTKLEIK	0.67	2.19	3.98	1.25	2.68	2.64	1.76	0.87	4.47	2.84	1.88	2.06	3.89	2.44	1.79	1.09	0.99	0.13	1.92	2.02	% Inhibition (Average) (MDA-MB-361): 1.98%; Net Gain (Average % Growth Inhibition) (ES2 [3]): 4.17%; Net Gain (Average % Growth Inhibition) (AsPC1 [4]): 5.11%; % Inhibition (Average) (A549): 4.25%; % Inhibition (Average) (DU145): 2.09%; % Inhibition (Average) (LNCap): 1.72%; % Inhibition (Average) (SKMES): 1.28%; % Inhibition (Average) (SKBR3): 2.55%
DR5 mAb 1: anti-human DR5 monoclonal antibody; VL SEQ ID NO:3, VH SEQ ID NO:8 (antibody, listed as Mus musculus, V domains shown, (1)..(121) Anti-DR5 Antibody mAb 1 Heavy Chain Variable Region; (1)..(111) Anti-DR5 Antibody mAb 1 Light Chain Variable Region) VH: EVKFLESGGGLVQPGGSLKLSCVASGFDFSRYWMSWVRQAPGKGLEWIGEINPDSNTINYTPSLKDKFIISRDNAKNTLYLQMTKVRSEDTALYYCTRRAYYGNPAWFAYWGQGTLVTVSS VL: DIVLTQSPASLAVSLGQRATISCRASKSVSSSGYSYMHWYQQKPGQPPKVLIFLSSNLDSGVPARFSGSGSGTDFTLNIHPVEDGDAATYYCQHSRDLPPTFGGGTKLEIK	1.6	2.79	2.47	2.83	2.86	0.55	3.53	0.68	1.79	2.26	3.31	2.86	3.03	2.65	0.91	1.6	1.21	1.73	0.89	3.16	% Inhibition (Average) (MDA-MB-361): 1.54%; Net Gain (Average % Growth Inhibition) (ES2 [3]): 4.17%; Net Gain (Average % Growth Inhibition) (AsPC1 [4]): 5.11%; % Inhibition (Average) (A549): 2.79%; % Inhibition (Average) (DU145): 1.66%; % Inhibition (Average) (LNCap): 2.1%; % Inhibition (Average) (SKMES): 1.75%; % Inhibition (Average) (SKBR3): 1.97%
